Measurements taken from PMC4546566 (Annals of neurology, 2015).

How the values were obtained:
[1] = Aβ stable isotope labeling kinetics; format: in vivo, human; conditions: for FTR faster in cognitively normal amyloid positive group: in vivo
[2] = format: in vivo, human; conditions: 0.143 - 0.091

Substance	FTR faster in cognitively normal amyloid positive group [1] [%]	deposition rate constant into amyloid plaques [2] [pool/h]	FTR (fractional turnover rate, irreversible loss) ([1]; compartmental model, CDR-SB = 0 (n=44), mean ± SD) [pools/h]
Aβ38: endogenous soluble amyloid-beta isoform ending at residue 38, measured in human CSF	22	–	–
Aβ40: endogenous soluble amyloid-beta isoform ending at residue 40, measured in human CSF	17	–	–
Aβ42: endogenous soluble amyloid-beta isoform ending at residue 42, measured in human CSF	57	0.052	0.104 ± 0.036
